Assay results taken from paper PMC12361007 (AMB Express, 2025).

Biological target: human serum albumin (human, UniProt P02768 25-609)
Assay: BLI

B1: rhIL-22BP-ABD (recombinant human IL-22 binding protein fused to the albumin-binding domain ABD) (other)
chain: TQSTHESLKPQRVQFQSRNFHNILQWQPGRALTGNSSVYFVQYKIYGQRQWKNKEDCWGTQELSCDLTSETSDIQEPYYGRVRAASAGSYSEWSMTPRFTPWWETKIDPPVMNITQVNGSLLVILHAPNLPYRYQKEKNVSIEDYYELLYRVFIINNSLEKEQKVYEGAHRAVEIEALTPHSSYCVVAEIYQPMLDRRSQRSEERCVEIPLAEAKVLANRELDKYGVSDYYKNLINNAKTVEGVKALIDEILAALP
- Kd: 1.15 µM
